Reference: publication PMC2711614 (The Journal of Cell Biology, 2009)

T1: His6-Hof1-C (amino acids 341–669) (S. cerevisiae, UniProt Q05080 341-669)
T1 sequence (looked up): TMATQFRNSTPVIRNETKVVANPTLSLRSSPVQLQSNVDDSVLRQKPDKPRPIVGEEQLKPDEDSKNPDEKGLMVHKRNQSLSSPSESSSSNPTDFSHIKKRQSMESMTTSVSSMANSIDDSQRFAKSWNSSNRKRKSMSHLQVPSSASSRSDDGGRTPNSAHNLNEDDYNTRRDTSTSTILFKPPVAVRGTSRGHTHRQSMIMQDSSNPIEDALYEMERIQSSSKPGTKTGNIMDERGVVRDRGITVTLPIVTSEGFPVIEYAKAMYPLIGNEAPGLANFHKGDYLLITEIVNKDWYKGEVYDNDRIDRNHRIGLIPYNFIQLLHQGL

B1: GST-Inn1-tail (amino acids 131–409), wild type (domain or fragment, S. cerevisiae, UniProt P53901 131-409, looked up)
chain: LTFTPKVPRLNRDDLNKEMDRLDSSMAMRPIPPLPTESEYDYVHGSTMRQITPQCVSTSHEDKDEGQPYRNGNVFSMSSKSDTAVLANSNDPIILPPTFSASMGTTSTLETNDTAISNTSNTKFHFANLRKLKEKINIFKNPDSSTNNCQNESNKVDIEALQKAIGVTSLSYDEDDDDDDENDAFYSSSHRVSHNYNQPPLPPIPTRDDMSNYSSSRNTPLVRRDRPSRLDSSSPNSHPHPSGLNSPKLPPLPTTSNSNFNSRKNSMSPTRKRPPPRLS
B2: His6-tagged Cyk3 SH3 domain fragment (amino acids 1–70) (domain or fragment, S. cerevisiae, UniProt Q07533 1-70, looked up)
chain: MATNLTSLKPPFKVKARYGWSGQTKGDLGFLEGDIMEVTRIAGSWFYGKLLRNKKCSGYFPHNFVILLEE

How the values were obtained:
[1] = target: T1, His6-Hof1-C (amino acids 341–669); test: pull-down
[2] = target: B1; test: pull-down

Row | Binder | binding result [1] | binding result [2]
1 | B1 | binds | –
2 | B2 | – | binds
